Measurements reported in publication PMC11357854, “Molecular insights into the regulatory landscape of PKC-related kinase-2 (PRK2/PKN2) using targeted small compounds” (The Journal of Biological Chemistry, 2024).
Positions count from the first letter of the chain named. Names and notes keep the numbering of the source. No end group written: not given here. *: point of attachment. Biotin = O=C1N[C@H]2[C@H](CS[C@H]2CCCCC(=O)*)N1

T1: His-PDK1_(50-359) [PRK2-pocket] (UniProt O15530 50-359, K76Q | I119V | V127L | T128M | R131K | T148C | L155V)
T1 construct: also called PDK1 [PRK2-pocket]; His-PDK1 [PIF-pocket PRK2]; source: Sf9 (Bac-to-Bac), purified (nickel-nitrilotriacetic acid, gel filtration)
T1 sequence (looked up): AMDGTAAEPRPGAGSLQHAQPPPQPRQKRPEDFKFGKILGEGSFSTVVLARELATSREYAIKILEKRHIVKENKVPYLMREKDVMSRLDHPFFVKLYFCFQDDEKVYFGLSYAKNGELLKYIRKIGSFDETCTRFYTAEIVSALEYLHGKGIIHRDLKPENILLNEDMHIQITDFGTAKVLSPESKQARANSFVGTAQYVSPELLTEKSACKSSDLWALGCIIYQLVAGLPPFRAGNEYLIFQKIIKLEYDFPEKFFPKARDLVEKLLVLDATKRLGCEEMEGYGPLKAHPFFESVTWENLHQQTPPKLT

B1: His-PDK1_(1-556) (enzyme, UniProt O15530 1-556, looked up)
chain: MARTTSQLYDAVPIQSSVVLCSCPSPSMVRTQTESSTPPGIPGGSRQGPAMDGTAAEPRPGAGSLQHAQPPPQPRKKRPEDFKFGKILGEGSFSTVVLARELATSREYAIKILEKRHIIKENKVPYVTRERDVMSRLDHPFFVKLYFTFQDDEKLYFGLSYAKNGELLKYIRKIGSFDETCTRFYTAEIVSALEYLHGKGIIHRDLKPENILLNEDMHIQITDFGTAKVLSPESKQARANSFVGTAQYVSPELLTEKSACKSSDLWALGCIIYQLVAGLPPFRAGNEYLIFQKIIKLEYDFPEKFFPKARDLVEKLLVLDATKRLGCEEMEGYGPLKAHPFFESVTWENLHQQTPPKLTAYLPAMSEDDEDCYGNYDNLLSQFGCMQVSSSSSSHSLSASDTGLPQRSGSNIEQYIHDLDSNSFELDLQFSEDEKRLLLEKQAGGNPWHQFVENNLILKMGPVDKRKGLFARRRQLLLTEGPHLYYVDPVNKVLKGEIPWSQELRPEAKNFKTFFVHTPNRTYYLMDPSGNAHKWCRKIQEVWRQRYQSHPDAAVQ
notes: also called full-length PDK1; His-PDK1 FL; source: Sf9 (Bac-to-Bac), purified (nickel-nitrilotriacetic acid, gel filtration)
B2: His-PDK1_(50-359) (domain or fragment, UniProt O15530 50-359, looked up)
chain: T1 sequence (looked up) with Q27K, V70I, L78V, M79T, K82R, C99T, V106L
notes: also called catalytic domain of PDK1; source: Sf9 (Bac-to-Bac), purified (nickel-nitrilotriacetic acid, gel filtration)
B3: biotin-PKLtide (peptide)
peptide: Biotin-PKLQRQKKIFSKQQG
notes: polypeptide comprising the pseudosubstrate PKL region of PRK2; source: synthetic peptide (JPT Peptide Technologies)
B4: PIFtide (peptide)
peptide: REPRILSEEEQEMFRDFDYIADWC
notes: also called polypeptide PIF; HM polypeptide derived from the C terminus of PRK2; source: synthetic peptide (JPT Peptide Technologies)
B5: biotin-PIFtide (Cys → Ser) (peptide)
peptide: Biotin-REPRILSEEEQEMFRDFDYIADWS
notes: PIFtide, C-terminal region of PRK2, with the last Cys replaced by Ser; source: synthetic peptide (Pepscan)
B6: GST-PRK2_(643-984) WT (domain or fragment)
chain: not shown
modifications: phosphorylated at the activation loop (Thr816 in PRK2)
notes: PKC-related kinase 2 (PRK2/PKN2), catalytic domain with the C-terminal PIF/HM region, lacking the N-terminal 642 residues; also called isolated catalytic domain of PRK2; GST-PRK2 CD WT; source: HEK293T, transient transfection (pEBG2T-derived plasmid), purified
B7: GST-PRK2_(643-984) [T958A] (domain or fragment)
chain: not shown
modifications: phosphorylated at the activation loop (Thr816 in PRK2)
notes: source: HEK293T, transient transfection (pEBG2T-derived plasmid), purified

What was measured:
Details in all cases: both partners purified
GST-PRK2_(1-984) [T958A] = molecular target: T2, GST-PRK2_(1-984) [T958A] (UniProt Q16513 1-984, T958A, phosphorylated at the activation loop (Thr816 in PRK2)); assay: AlphaScreen or HTRF; competitive displacement of His-PDK1 / GST-PRK2 [T958A] complexes by varied PIFtide; 30 to 40 nM PDK1 versus 5 to 10 nM PRK2; nickel chelate acceptor beads and glutathione donor beads
T2 construct: also called full-length PRK2 T958A; source: HEK293T, transient transfection (pEBG2T-derived plasmid), purified

GST-PRK2_(1-984) WT = molecular target: T3, GST-PRK2_(1-984) WT (UniProt Q16513 1-984, phosphorylated at the activation loop (Thr816 in PRK2)); assay: AlphaScreen or HTRF; His-PDK1 fixed at 20 nM against varied GST-PRK2 constructs; nickel chelate acceptor beads and glutathione donor beads; 50 mM Tris-HCl pH 7.4 (or 20 mM Hepes pH 7.5), 100 mM NaCl, 1 to 2 mM DTT, 0.01% Tween 20, 0.1% BSA; 90 min at room temperature
T3 construct: also called full-length PRK2; PKN2; source: HEK293T, transient transfection (pEBG2T-derived plasmid), purified

[1] = molecular target: B7; assay: AlphaScreen or HTRF; His-PDK1 and GST-PRK2 at fixed concentrations (30 to 50 nM PDK1, 5 to 50 nM PRK2) with varied small compounds (PS210, GSK2334470, UCN-01, Y-27632); nickel chelate acceptor beads and glutathione donor beads
GST-PRK2_(643-984) WT [2] = molecular target: B6; assay: as above
GST-PRK2_(643-984) WT [3] = molecular target: B6; assay: AlphaScreen or HTRF; GST-PRK2_(643-984) (1.5 nM) and biotin-PKLtide (75 nM) with varied compounds or 5% DMSO; anti-GST-coated acceptor beads and streptavidin-coated donor beads
His-PDK1_(50-359) [4] = molecular target: B2; assay: AlphaScreen or HTRF; competitive displacement of His-PDK1 / GST-PRK2 [T958A] complexes by varied PIFtide; 30 to 40 nM PDK1 versus 5 to 10 nM PRK2; nickel chelate acceptor beads and glutathione donor beads
His-PDK1_(1-556) [5] = molecular target: B1; assay: as above
His-PDK1_(50-359) [6] = molecular target: B2; assay: AlphaScreen or HTRF; His-tagged PDK1 construct (30 nM) and biotin-PIFtide (Cys → Ser; 10 or 30 nM), cross-titration and displacement by small compounds; nickel chelate and streptavidin-coated beads
[7] = molecular target: T1, His-PDK1_(50-359) [PRK2-pocket]; assay: as above
His-PDK1_(1-556) [8] = molecular target: B1; assay: AlphaScreen or HTRF; His-PDK1 fixed at 20 nM against varied GST-PRK2 constructs; nickel chelate acceptor beads and glutathione donor beads; 50 mM Tris-HCl pH 7.4 (or 20 mM Hepes pH 7.5), 100 mM NaCl, 1 to 2 mM DTT, 0.01% Tween 20, 0.1% BSA; 90 min at room temperature

Binder: B1
binding result (GST-PRK2_(1-984) [T958A]): binds
binding result (GST-PRK2_(1-984) WT): binds

Binder: B2
binding result (GST-PRK2_(1-984) [T958A]): binds
binding result [1]: binds
binding result (GST-PRK2_(643-984) WT [2]): binds
binding result (GST-PRK2_(1-984) WT): binds

Binder: B3
binding result (GST-PRK2_(643-984) WT [3]): binds

Binder: B4
binding result (His-PDK1_(50-359) [4]): binds
binding result (His-PDK1_(1-556) [5]): binds

Binder: B5
binding result (His-PDK1_(50-359) [6]): binds
binding result [7]: binds

Binder: B6
binding result (His-PDK1_(1-556) [8]): binds

Binder: B7
binding result (His-PDK1_(1-556) [5]): binds
